Experimental data from publication PMC10712694 (International Journal of Molecular Medicine, 2023).

How the values were obtained:
[1] = biological target: T1, LGR4 extracellular (ligand-binding) domain, L62 to V464, His-tagged (UniProt A2ARI4 62-464); experiment: MST
T1 sequence (looked up): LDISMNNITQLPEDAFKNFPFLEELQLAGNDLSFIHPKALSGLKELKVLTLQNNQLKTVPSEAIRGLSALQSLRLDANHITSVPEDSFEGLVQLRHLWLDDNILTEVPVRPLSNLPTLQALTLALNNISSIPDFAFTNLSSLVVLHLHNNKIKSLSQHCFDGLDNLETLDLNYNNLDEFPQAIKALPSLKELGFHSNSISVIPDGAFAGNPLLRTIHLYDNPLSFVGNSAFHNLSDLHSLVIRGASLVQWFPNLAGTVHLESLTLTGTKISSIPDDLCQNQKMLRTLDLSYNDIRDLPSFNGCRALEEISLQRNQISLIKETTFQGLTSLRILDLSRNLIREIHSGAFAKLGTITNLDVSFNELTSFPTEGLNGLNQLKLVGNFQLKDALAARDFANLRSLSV

[2] = biological target: T2, RANK extracellular (ligand-binding) domain, Q30 to P213, His-tagged (UniProt O35305 30-213); experiment: MST
T2 sequence (looked up): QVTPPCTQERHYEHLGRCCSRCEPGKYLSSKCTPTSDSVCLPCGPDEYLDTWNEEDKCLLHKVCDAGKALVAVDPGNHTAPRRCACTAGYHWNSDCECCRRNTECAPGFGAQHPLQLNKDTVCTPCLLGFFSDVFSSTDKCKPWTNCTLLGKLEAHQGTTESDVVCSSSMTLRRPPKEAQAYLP

B1: wild-type RANKL (receptor activator of nuclear factor-κB ligand) (ligand, UniProt O35235 139-316, looked up)
chain: FSGAPAMMEGSWLDVAQRGKPEAQPFAHLTINAASIPSGSHKVTLSSWYHDRGWAKISNMTLSNGKLRVNQDGFYYLYANICFRHHETSGSVPTDYLQLMVYVVKTSIKIPSSHNLMKGGSTKNWSGNSEFHFYSINVGGFFKLRAGEEISIQVSNPSLLDPDQDATYFGAFKVQDID
Kd [1]: 409 nM | Kd [2]: 33.3 nM
